According to publication PMC4072508, “Genome-Wide Prediction and Validation of Peptides That Bind Human Prosurvival Bcl-2 Proteins” (PLoS Computational Biology, 2014):

B1: DBC1 (peptide)
chain: RQKIQRTARKLFGLSVRCRHNPNHQL
B2: TRIO (peptide)
chain: GEGAEEAAKDLADIAAFFRSGFRKND
B3: LYZ (peptide)
chain: VFERCELARTLKRLLMDGYRGISLAN
B4: EVI5 (peptide)
chain: PHQFDGVPDKLIQAAYQVKYNSKKMK
B5: FHOD1 (peptide)
chain: LASIGGLAARLQLWAFKLDYDSMERE
B6: BLOC1S2 (peptide)
chain: VAALEQAAYKLDAYSKKLEAKYKKLE
B7: C3orf15 (peptide)
chain: RAEIEKMAEKINDIAYEMESRRTYLQ
B8: C8orf37 (peptide)
chain: TNISWRACDHLRCILCDFLVVSYDDY
B9: EVI5 (peptide)
chain: PHQFDGVPDKDIQAAYQVKYNSKKMK
B10: PION (peptide)
chain: DISLSNSGFKDVNFGCDYHQYRDKFS
B11: RIOK2 (peptide)
chain: NEEGQQFALKLHRLLRTSFRNLKNKR
B12: ANKRD17 (peptide)
chain: ENGHTDVADVLLQAGADLEHESEGGR
B13: LAMC1 (peptide)
chain: YEQAKNISQDLEKQAARVHEEAKRAG
B14: WDR24 (peptide)
chain: QGDVQMAVSVLIVLGERVRKDIDEQT
B15: HSPA9 (peptide)
chain: GENIRQAASSLQQASLKLFEMAYKKM
B16: CCNH (peptide)
chain: RYPILENPEILRKTLDDFLNRIALTD
B17: FOLH1B (peptide)
chain: PFDCRDYAVVDRKYADKIYNISMKHP
B18: ABCD4 (peptide)
chain: SQDVERFCRQLSSMASKLIISPFTLV
B19: PXT1 (peptide)
chain: EEIIHKLAMQLRHILDNIDHRMVRED
B20: NBEAL2 (peptide)
chain: EVRSSQFARKLWRSSRRISQVSSGET
B21: USP36 (peptide)
chain: AIKPVSFIRDDKKIARHFRFGNQEDA
B22: MAGEB2 (peptide)
chain: IKKSVTKGEMLKIVLKRFREHFPEIL
B23: DNAH3 (peptide)
chain: TEEMKHNVEKLNELSKNLNRAFAEFE
B24: FIBIN (peptide)
chain: GRQVEDAGRVLEGISKSISYDLDGEE
B25: mTOR (peptide)
chain: GELAQVSGLEMRKWLDELFIIIMDML
B26: ANGPTL3 (peptide)
chain: LDDVKILANGLLQLGHGLKDFVHKTK
B27: APOA4 (peptide)
chain: VPFATELHERLAKDSEKLKEEIGKEL
B28: RIOK2 (peptide)
chain: NEEGQQFALKLHRLGRTSFRNLKNKR
B29: CCDC138 (peptide)
chain: GAQHSTMTSTLRRLLEDIFKGVVTKG
B30: NPLOC4 (peptide)
chain: ATKRETAATFDKKVAKEFGFQNNGFS
B31: FIGN (peptide)
chain: DISALTASNLLKKYLEKYSGILEGPV
B32: MYH6 (peptide)
chain: SRELEEISERLEEAGGATSVQIEMNK
B33: SRGAP3 (peptide)
chain: DIFMNNVIVRLSQISEDVIRLFKKSK
B34: C6orf223 (peptide)
chain: RGRTRGWVQTLARMSRRTRGPVERAA
B35: CASP5 (peptide)
chain: DNHKKKTVKMLEYLLKDVLHGVFNYL
B36: KLC1 (peptide)
chain: GKDHPDVAKQLNNLALLCQNQGKYEE
B37: BRPF3 (peptide)
chain: DTIFHRAAVRLRDLLGAILRHARRQA
B38: COG8 (peptide)
chain: WRERPDVGRYLRELSGSGLERLRREP
B39: FAM43B (peptide)
chain: AHKARALARLLRQTLLAAFSDFKRLQ
B40: OPHN1 (peptide)
chain: EVDVGKLVSRLQDGGTKITPKATNGP
B41: AGBL2 (peptide)
chain: SSLSDGLPVHDANIADELTQKKKMFK
B42: ZW10 (peptide)
chain: TCRISESVKKLMELAYQTLLEATTSS
B43: CASKIN2 (peptide)
chain: KNGHREVIRQLLRAGIEINRQTKTGT
B44: NUF2 (peptide)
chain: KTALEKYHDGIEKAAEDSYAKIDEKT
B45: GH2 (peptide)
chain: FDNAMLRARRLYQLAYDTYQEFEEAY
B46: DPF3 (peptide)
chain: SCMATVIHNPLKALLDQFYKEAIEHC
B47: TCP11L2 (peptide)
chain: TGGLPELASRLTRISAVLLEGMNKET
B48: COMMD2 (peptide)
chain: PKIYEGAARKLNVSSDTVQHGVEGLT
B49: AGBL2 (peptide)
chain: SSLSDGLPVHLANILDELTQKKKMFK
B50: CACNA1G (peptide)
chain: VYILRKAARRDAQVSRAAGVRVGLLS
B51: LDB3 (peptide)
chain: NPIGLYSAETLREMAQMYQMSLRGKA
B52: FOLH1B (peptide)
chain: PFDCRDYAVVLRKYLDKIYNISMKHP
B53: UGGT2 (peptide)
chain: TREAQKMAQLLVVLGKIINMKIKLFM
B54: OTC (peptide)
chain: NESLTDTARVLSSMADAVLARVYKQS
B55: TAF1 (peptide)
chain: EGTKIVLGKQDIESADEVRRKSLVLK

target: Bcl-xL, Q07817; test: peptide SPOT array, c-Myc-tagged receptor at 1 uM or 100 nM, anti-c-Myc-Cy3
Sequence (Q07817 1-209): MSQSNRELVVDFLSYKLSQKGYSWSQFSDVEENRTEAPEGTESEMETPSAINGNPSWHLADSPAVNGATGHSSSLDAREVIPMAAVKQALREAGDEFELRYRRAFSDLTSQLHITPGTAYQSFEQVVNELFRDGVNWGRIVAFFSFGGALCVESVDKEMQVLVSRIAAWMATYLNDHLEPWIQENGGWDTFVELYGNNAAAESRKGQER

SPOT signal as a fraction of Bim BH3's signal on the same receptor and array | Binder
0.69 | B1
0.03 | B2
0.42 | B3
0.69 | B4
0.03 | B5
0.25 | B6
0.03 | B7
0.03 | B8
0.58 | B9
0.03 | B10
0.69 | B11
0.02 | B12
0.03 | B13
0.02 | B14
0.09 | B15
0.02 | B16
0.36 | B17
0.05 | B18
0.02 | B19
0.86 | B20
1.34 | B21
0.2 | B22
0.02 | B23
0.02 | B24
0.02 | B25
0.04 | B26
0.02 | B27
0.95 | B28

SPOT signal as a fraction of Bim BH3's signal on the same receptor and array | Binder
0.19 | B29
0.24 | B30
0.13 | B31
0.02 | B32
0.18 | B33
0.75 | B34
0.24 | B35
0.02 | B36
0.55 | B37
0.09 | B38
0.59 | B39
0.02 | B40
0.03 | B41
0.04 | B42
0.23 | B43
0.02 | B44
0.04 | B45
0.03 | B46
0.03 | B47
0.03 | B48
0.1 | B49
0.94 | B50
0.3 | B51
0.51 | B52
0.1 | B53
0.03 | B54
0.05 | B55
